According to paper PMC8159254:

Target: NfRedAm, reductive aminase from Neosartorya fumigata (Neosartorya fumigata)
Test: SEC-MALS

NfRedAm, reductive aminase from Neosartorya fumigata (enzyme)
stoichiometry N: 2
